The values below come from paper PMC10917784.

Assay [1] concerns the target ISB 1442 (human). Description: SPR; antibody constructs immobilised on a Protein L Series S CM5 chip, increasing concentrations of Fc receptor flushed; Biacore 8K+, 25 °C, neutral pH; 1:1 binding model. A general note: Surface plasmon resonance follows binding to a sensor surface in real time, without labels.
For assay [2], the target named is ISB 1442 WT Fc (human). The description is as above.
Assay [3] deals with trastuzumab. Description: SPR; antibody constructs captured on a Protein L Series S CM5 chip, Fc receptors flowed over; Biacore 8K+, 25 °C, neutral pH; 1:1 binding model (FcγRI and FcγRIIIa); three replicates.
Assay [4] has as its target ISB 1442, CD38 and CD47 bispecific biparatopic antibody (enhanced Fc) (human). Described as above.
The target in assay [5] is Trastuzumab. Description: SPR; antibody constructs immobilised on a Protein L Series S CM5 chip, increasing concentrations of Fc receptor flushed; Biacore 8K+, 25 °C, neutral pH; 1:1 binding model.
In assay [6] the target is SIRPα (Homo sapiens) (UniProt P78324). The conditions noted are these: cited from earlier work.
Assay [7] deals with ISB 1442 with a wild-type Fc (without Fc enhancing mutations) (human). Nature of the assay: SPR; antibody constructs captured on a Protein L Series S CM5 chip, FcRn flowed over; Biacore 8K+, 25 °C, pH 6.0; steady state affinity model; three replicates.
Assay [8] concerns the target trastuzumab. Described as above.
In assay [9] the target is ISB 1442, CD38 and CD47 bispecific biparatopic antibody (enhanced Fc) (human). The assay is described as above.
For assay [10], the target named is ISB 1442 (human). Description: SPR; antibody constructs immobilised on a Protein L Series S CM5 chip, increasing concentrations of FcRn flushed; Biacore 8K+, 25 °C, pH 6.0; steady state affinity model.
Assay [11] deals with ISB 1442 silenced Fc (human). Described as above.

Where “and” joins values, the source holds several entries; their conditions need not be identical. Equal entries are not always repeated.

his-tagged human FcγRIIIa ECD, sequence (P08637 17-208): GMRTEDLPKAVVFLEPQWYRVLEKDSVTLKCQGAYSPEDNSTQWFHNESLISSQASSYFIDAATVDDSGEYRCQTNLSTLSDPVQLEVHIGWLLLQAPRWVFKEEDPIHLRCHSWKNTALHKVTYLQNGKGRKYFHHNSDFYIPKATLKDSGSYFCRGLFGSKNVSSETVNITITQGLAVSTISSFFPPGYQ
his-tagged human FcRn ECD & β2 microglobulin, sequence (P55899 24-297): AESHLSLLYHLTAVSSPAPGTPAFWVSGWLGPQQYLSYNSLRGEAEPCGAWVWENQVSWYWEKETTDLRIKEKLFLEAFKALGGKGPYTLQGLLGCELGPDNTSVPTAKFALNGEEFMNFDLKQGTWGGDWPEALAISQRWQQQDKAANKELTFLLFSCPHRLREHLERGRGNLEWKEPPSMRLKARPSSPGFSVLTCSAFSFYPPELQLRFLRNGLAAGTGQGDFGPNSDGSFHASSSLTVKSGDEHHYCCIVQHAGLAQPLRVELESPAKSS
his-tagged human FcRn ECD & β2 microglobulin, sequence (P61769 21-119): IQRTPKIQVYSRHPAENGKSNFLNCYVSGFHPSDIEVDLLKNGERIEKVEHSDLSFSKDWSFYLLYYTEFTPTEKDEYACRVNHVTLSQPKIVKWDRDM
human FcγRIIIa ECD, sequence (P08637 17-208): as the sequence (P08637 17-208) above
human FcRn ECD & β2 microglobulin, sequence (P55899 24-297): as the sequence (P55899 24-297) above
human FcRn ECD & β2 microglobulin, sequence (P61769 21-119): as the sequence (P61769 21-119) above
human FcγRI extracellular domain (ECD), sequence (P12314 16-292): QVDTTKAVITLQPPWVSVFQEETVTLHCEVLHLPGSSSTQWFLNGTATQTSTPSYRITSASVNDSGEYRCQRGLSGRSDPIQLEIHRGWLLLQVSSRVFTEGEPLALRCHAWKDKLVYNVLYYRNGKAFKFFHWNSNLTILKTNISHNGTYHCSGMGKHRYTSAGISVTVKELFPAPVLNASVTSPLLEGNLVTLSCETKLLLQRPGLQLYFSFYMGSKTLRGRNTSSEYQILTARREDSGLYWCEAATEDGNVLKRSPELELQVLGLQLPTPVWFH

Broadly, the Kd is the constant that tells how readily two partners part at equilibrium. As to “human FcγRIIIa ECD (from UniProt P08637 17-208) (receptor)”, the results for the Kd in [1] and in [2] were 13 nM and 57 nM, respectively.

Regarding “his-tagged human FcγRIIIa ECD (from UniProt P08637 17-208) (receptor)”, the Kd was 134 nM in assay [3]; 13.2 nM and 12.6 nM and 13.8 nM in assay [4]; 13.2 nM in [4] (mean).

As to “human FcγRI extracellular domain (ECD) (from UniProt P12314 16-292) (receptor)”, in [5], the Kd turned out to be 0.21 nM.

For CD47 (from UniProt Q08722), in assay [6], the Kd was 1000 nM.

Regarding “his-tagged human FcRn ECD & β2 microglobulin (from UniProt P55899 24-297; P61769 21-119) (complex)”, the Kd in [7] was 236 nM; in assay [8], 253 nM and 217 nM and 203 nM; in assay [9], 129 nM and 189 nM; in assay [9] (mean) it was 181 nM.

For “human FcRn ECD & β2 microglobulin (from UniProt P55899 24-297; P61769 21-119) (complex)”, the values for the Kd in assay [10] and in assay [11] were 181 nM and 221 nM, respectively.
